Like-named read-outs stand apart in the source and are kept apart here.
How the values were obtained:
[1] = Equilibrium denaturation of FKBP-12 proteins by GdnHCl, capillary method; format: physicochemical
Description: Samples were measured and averaged for 100 laser pulses. […] Error bars shown are standard deviations.
(§1) The experimental detail was as set out below:
(§2) Equilibrium denaturation of wild-type FKBP-12: 50 μl, of FKBP-12 stock (50 μM FKBP-12, 5 mM DTT, 50 mM Tris.HCl, pH 7.5) was added to each well of a UV transparent Costar (Corning, Lowell, Mass., USA) 96-well plate. […] Samples were sealed and equilibrated for 17 hours at 22° C. prior to measurement of intrinsic protein fluorescence in a Fluostar Optima plate reader as above. The same samples were then used to measure intrinsic protein fluorescence in the micro-capillary device for a direct comparison.
(§3) Data for the observed fluorescence (Fobs) as a function of denaturant concentration ([D]) were fit using SigmaPlot 10.0 (Systat Software, Hounslow, UK) to the equation below: […]
(§4) The free energy of protein denaturation in water ΔGH2O was calculated as mGC1/2, using the fitted mG, where we set the denaturant dependent free energy (ΔGobs) to zero in the equation below when [D] is equal to C1/2. ΔGobs=ΔGH2O+mG[D] Values of ΔGH2O were used to calculate the change in free energy of the mutant or ligand bound protein, ΔΔGX-WT, relative to un-liganded wild-type FKBP-12. The change in free energy of unfolding upon ligand binding, ΔΔGbinding, was calculated for each mutant from the values of ΔGH2O for liganded FKBP-12 relative to ΔGH2O for non-liganded FKBP-12.

[2] = Equilibrium denaturation of FKBP-12 proteins by GdnHCl, microplate method; format: physicochemical
Description: as §1, §2, §3, §4

[3] = Example 1 GdHCl denaturation of FKBP-12, capillary intrinsic fluorescence; format: physicochemical; conditions: 2 μM FKBP-12, GdHCl, 1 mM DTT, 50 mM Tris.HCl pH 7.5, 20° C.
Description: The configuration comprises a laser 5 (QUV266-02, Crystalaser, Reno, Nev.) of wavelength 266 nm, 5 mW, pulsed at 1 kHz; a bandpass filter (newport), at 266 nm 15; a converging lens (SPX010AR.10, Newport) 16; a 100 μm internal diameter capillary (FS-110, Upchurch™) 1; and a photo multiplier tube (R1166PMT, Hamamatsu, Japan) 7; linked to a data acquisition system consisting of a PC expansion card (PXI-5124, National Instruments), for capture and analysis of the data in Labview (National Instruments). […] Samples were measured and averaged for 100 laser pulses. […] A fluorescence relative intensity of 1500 at a concentration of 0 mg ml^−1 of BSA corresponds to the background signal of the setup generated by excitation radiation.
The denaturation experiment was repeated for another protein using 2 μM FKBP-12. […] The stability was measured using the denaturant guanidinium hydrochloride (GdHCl) in 1 mM dithiothreitol (DTT), 50 mM Tris.HCl at pH 7.5 and at 20° C., using a flow rate of 10 μL/min through the capillary. The fluorescence of FKBP with various concentrations of GdHCl (from 0M to 3M) was measured. […] C1/2 represents the denaturant concentration at which half of the protein is in the unfolded state.

[4] = Literature, cited from earlier work
[5] = GdnHCl, 50 mM Tris.HCl pH 7.5, 1 mM DTT
[6] = GdnHCl, mG from each independent curve fit
[7] = GdnHCl, using average mG values
[8] = relative to wild-type FKBP-12 without rapamycin, from ΔGH2O

FKBP-12 wt: Wild-type FKBP-12 expressed and purified from a GST-FKBP fusion gene in E. coli BL21 cells
mG ([1]; GdnHCl): 5.4 ± 0.7 kcal mol^−1 M^−1
C1/2 (transition mid-point) [1, 5]: 0.74 ± 0.02 M
ΔGH2O [1, 6]: 16.9 ± 2.1 kJ/mol
ΔG<mG> [1, 7]: 16.1 ± 1.3 kJ/mol
ΔΔGX-WT [1, 8]: 0 kJ/mol
mG ([2]; GdnHCl): 6.6 ± 0.4 kcal mol^−1 M^−1
C1/2 (transition mid-point) [2, 5]: 0.77 ± 0.01 M
ΔGH2O [2, 6]: 21.1 ± 1.3 kJ/mol
ΔG<mG> [2, 7]: 19.7 ± 1.3 kJ/mol
ΔΔGX-WT [2, 8]: 0 kJ/mol
mid-point of denaturation (C1/2), absence of rapamycin [3]: 0.65 M
C1/2 (transition mid-point) ([4]; GdnHCl): 0.78 ± 0.005 M
mG ([4]; GdnHCl): 6.6 ± 0.3 kcal mol^−1 M^−1
ΔGH2O ([4]; GdnHCl): 21.5 ± 0.84 kJ/mol
ΔΔGX-WT ([4]; relative to wild-type FKBP-12 without rapamycin): 0 kJ/mol

— US9347884B2, “Microfluidic device with direct sample heating via electromagnetic radiation” (UCL BUSINESS PLC, priority 2009, dated 2016)
